For data set [1], the target named is recombinant Phl p 7 mutant (hypoallergenic variant, four calcium-coordinating residues replaced by alanine) (timothy grass). The data set is described as follows: SEC; size exclusion chromatography (Yarra SEC-X150) coupled to a UV detector (230 nm) and ICPMS; 10 mM Tris, 50 mM ammonium sulfate, pH 7.5; 30 °C; apparent molecular masses.
Data set [2] deals with the molecule itself. Described as above.

Consider “recombinant Phl p 7 mutant (hypoallergenic variant, four calcium-coordinating residues replaced by alanine) (natural protein)”, for which the stoichiometry N in data set [1] stood at 2.

B1: recombinant wildtype Phl p 7 (timothy grass pollen polcalcin) (natural protein)
chain: ADDMERIFKRFDTNGDGKISLSELTDALRTLGSTSADEVQRMMAEIDTDGDGFIDFNEFISFCNANPGLMKDVAKVF
notes: codon-optimized synthetic gene in pET17b (NdeI/EcoRI); also called rPhl p 7 wildtype; Phl p 7 wildtype; source: E. coli BL21(DE3), purified (anion-exchange chromatography, HiTrap Q FF)
As to B1, the “stoichiometry N” value in data set [2] stood at 2.
